Key:
[1] = biological target: N-WASPC in complex with Alexa647-labeled EspFU R′5 (UniProt O08816); test: SEC
EspFU R′4-5 = EspFU R′4-5 (UniProt P0DJ88); test: ITC
EspFU R′5 = EspFU R′5 (UniProt P0DJ88); test: ITC
EspFU R′1-5 = EspFU R′1-5 (UniProt P0DJ88); test: ITC
Sequence of EspFU R′1-5 (P0DJ88 80-314): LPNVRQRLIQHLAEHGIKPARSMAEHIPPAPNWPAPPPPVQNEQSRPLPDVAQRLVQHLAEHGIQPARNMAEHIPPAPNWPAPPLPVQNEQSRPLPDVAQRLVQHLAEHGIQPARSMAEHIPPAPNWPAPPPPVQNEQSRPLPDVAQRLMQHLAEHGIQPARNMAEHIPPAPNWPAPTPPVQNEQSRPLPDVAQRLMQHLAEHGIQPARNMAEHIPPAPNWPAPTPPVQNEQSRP

Sequence of WASP GBD (residues 242–310) (P42768 242-310): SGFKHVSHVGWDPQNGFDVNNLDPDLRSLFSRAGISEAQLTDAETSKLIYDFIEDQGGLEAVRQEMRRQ
Sequence of EspFU R′5 (P0DJ88 221-267): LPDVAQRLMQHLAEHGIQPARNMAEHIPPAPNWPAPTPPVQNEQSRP
Sequence of EspFU R′4-5 (P0DJ88 221-314): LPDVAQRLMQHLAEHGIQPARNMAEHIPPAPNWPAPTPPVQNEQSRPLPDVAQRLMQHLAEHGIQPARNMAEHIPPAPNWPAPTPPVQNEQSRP
Sequence of N-WASPC in complex with Alexa647-labeled EspFU R′5 (O08816 193-501, chain 1 of 2): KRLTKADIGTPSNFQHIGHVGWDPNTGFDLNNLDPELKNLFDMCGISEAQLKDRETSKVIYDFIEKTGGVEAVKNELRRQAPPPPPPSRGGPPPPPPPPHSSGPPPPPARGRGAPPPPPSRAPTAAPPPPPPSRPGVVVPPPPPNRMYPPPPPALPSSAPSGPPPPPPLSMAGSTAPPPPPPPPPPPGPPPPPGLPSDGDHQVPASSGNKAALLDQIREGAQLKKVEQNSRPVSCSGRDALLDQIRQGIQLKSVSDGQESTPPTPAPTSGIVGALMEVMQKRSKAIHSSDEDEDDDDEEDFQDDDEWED
Sequence of N-WASPC in complex with Alexa647-labeled EspFU R′5 (P0DJ88 221-267, chain 2 of 2, further chain): as the sequence (P0DJ88 221-267) above

Substance | percent of the EspFU shifted into the EspFU-N-WASP-Arp2/3 complex [1] | Kd (EspFU R′4-5) | stoichiometry N (EspFU R′4-5) | Kd (EspFU R′5) | stoichiometry N (EspFU R′5) | Kd (EspFU R′1-5) | stoichiometry N (EspFU R′1-5)
Arp2/3 complex | 60% |  |  |  |  |  | 
WASP GBD (residues 242–310) (from UniProt P42768 242-310) (domain or fragment) |  | 0.095 µM | 1.8 | 0.089 µM | 1 | 0.083 µM | 5.7
